The text below walks through data of paper doi:10.1101/2023.08.10.552882.

The target of this experiment is human 26S proteasome (human) (UniProt O00487). Briefly: single-molecule TIRF microscopy.
UniProt O00487, sequence (O00487 whole entry, looked up): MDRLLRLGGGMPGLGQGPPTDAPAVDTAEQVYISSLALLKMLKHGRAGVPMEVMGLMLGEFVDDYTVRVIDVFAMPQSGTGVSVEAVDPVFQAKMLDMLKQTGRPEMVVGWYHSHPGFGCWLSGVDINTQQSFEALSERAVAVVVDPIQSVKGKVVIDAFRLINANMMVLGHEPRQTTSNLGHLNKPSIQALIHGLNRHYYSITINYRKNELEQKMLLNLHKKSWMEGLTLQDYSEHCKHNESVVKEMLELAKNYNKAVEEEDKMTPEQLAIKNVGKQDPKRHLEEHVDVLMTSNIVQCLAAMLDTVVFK

Take K48-polyUb-GFP (from UniProt P0CG48): the half-life of the proteasome-substrate complex is 2.82 s and the puncta density relative to pK48-polyUb-GFP was 5 fold.

In turn, pK48-polyUb-GFP (from UniProt P0CG48) displayed a half-life of the proteasome-substrate complex of 0.73 s.
